Tests used:
[1] = biological target: gp120 of CXCR4-tropic HIV-1 IIIB (on cell-free virus) (HIV-1 IIIB); experiment: cell-based or functional assay
[2] = biological target: gp120 of CCR5-tropic HIV-1 BaL (on cell-free virus) (HIV-1 BaL); experiment: cell-based or functional assay

B1: Lactobacillus-derived full-length APVT-CV-N (P51G) (other)
chain: APVTLGKFSQTCYNSAIQGSVLTSTCERTNGGYNTSSIDLNSVIENVDGSLKWQGSNFIETCRNTQLAGSSELAAECKTRAQQFVSTKINLDDHIANIDGTLKYE
[1]
  IC50, inhibition of CXCR4-tropic HIVIIIB (HeLa-LTR-beta-gal X4-tropic attachment assay): < 3 nM
[2]
  IC50, inhibition of CCR5-tropic HIVBaL infection (MAGI-R5-LTR-beta-gal attachment inhibition assay): 0.3 nM

From patent US20090155304A1 (OSEL, published 2009)
